Test results as given in patent US20230257460A1 (Eli Lilly, published 2023).

B1: Antibody I (antibody, V domains shown)
VH: QSVEESGGRLVTPGTPLTLTCTASGFSLSSYDMGWVRQTPGEGLEWVGTISAGGYTYYAHWAKGRFTISKSSTTVDLKMTSLTTEDTATYFCARERWNYDRSGGAGAGYFDLWGPGTLVTVSS
VL: DVVMTQTASPVSAAVGGTVTINCQASQSITSSYLSWYQQKPGQPPKLLIYPAANLASGVPSRFKGSGSGTQFTLTISGVQCDDAATYYCLYGYFSSSIDFAFGGGTEVVVRG
B2: Antibody II (antibody, V domains shown)
VH: QSVEESGGGLVTPGGSLTLTCTVSGIDLTTYAMGWVRQAPGEGLEWIGIIGGGGRTYYAAWAKGRFTISKTSTTVDLRITSPATEDTATYFCVRGGDFFDLWGPGTLVTVSS
VL: AQVLTQTPASVSAAVGGTVTIKCQASEDISKYLSWYQQKPGQRPKLLIYYVSNLEFGVPSRFKGSGSGTEYTLTISDLECDDAATYYCHQGYTGVNVENVFGGGTEVVVRG

Key:
Human INSL5 [1] = molecular target: T1, Human INSL5 (human); assay: SPR (Biacore 8K), antibody captured on Protein A, INSL5 peptide as analyte, 25 C
T1 construct: also called human insulin-like peptide-5; human INSL5 peptide
T1 chain 1: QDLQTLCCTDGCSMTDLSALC
T1 chain 2: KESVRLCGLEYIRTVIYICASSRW
Experimental: (§1) Human INSL5 (Phoenix Pharmaceuticals Cat #035-70A) and mouse INSL5 (Phoenix Pharmaceuticals 035-40) are reconstituted at 0.5 (99 μM) or 1 mg/mL (195 μM) in DMSO, respectively. […] The antibodies of Example 1, 2, or a negative control are prepared by diluting them to 1 μg/mL in 1×HBS-EP+ buffer.
(§2) The experiment is conducted at 25° C. as well as at 37° C. and initiated with 5 start-up cycles of injecting 1×HBS-EP+ buffer. Then in each cycle, the antibody is captured onto flow cell 2 of channels 1-8 at 10 μL/min for 20 seconds. Next, 180 μL of the respective INSL5 peptide sample is individually injected across flow cells 1 and 2 for 180 seconds at 60 μL/min and then let dissociate for 1200 seconds at 60 μL/min flow rate. The surface is regenerated by injecting two 15 second pulses of 10 mM glycine-HCl pH 1.5 (BR-1003-54) at 30 μL/min. After a stabilization period of 60 seconds at a flow rate of 60 μL/min the next cycle is started.
(§3) The resulting sensorgrams are analyzed using Biacore 8K Evaluation Software). 1:1 binding kinetics model fitting is used to calculate the binding kinetic parameters association rate (ka), dissociation rate (kd), and equilibrium dissociation constant (KD).

Mouse INSL5 [2] = molecular target: T2, Mouse INSL5 (mouse); assay: as above
T2 construct: Bought two-chain peptide (Phoenix Pharmaceuticals Cat #035-40); also called mouse insulin-like peptide-5; mouse INSL5 peptide
T2 chain 1: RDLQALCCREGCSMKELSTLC
T2 chain 2: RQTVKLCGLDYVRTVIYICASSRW
Experimental: as §1, §2, §3

Human INSL5 [3] = molecular target: T1, Human INSL5; assay: SPR (Biacore 8K), antibody captured on Protein A, INSL5 peptide as analyte, 37 C
Experimental: as §1, §2, §3

Mouse INSL5 [4] = molecular target: T2, Mouse INSL5; assay: as above
Experimental: as §1, §2, §3

Binder	Kd (Human INSL5 [1])	koff (Human INSL5 [1])	kon (Human INSL5 [1])	Kd (Mouse INSL5 [2])	koff (Mouse INSL5 [2])	kon (Mouse INSL5 [2])	Kd (Human INSL5 [3])	koff (Human INSL5 [3])	kon (Human INSL5 [3])	Kd (Mouse INSL5 [4])	koff (Mouse INSL5 [4])	kon (Mouse INSL5 [4])
B1	0.041 nM	0.00036 s⁻¹	8.8e+06 M⁻¹ s⁻¹	0.0046 nM	5.4e-05 s⁻¹	1.2e+07 M⁻¹ s⁻¹	0.11 nM	0.0026 s⁻¹	2.4e+07 M⁻¹ s⁻¹	0.0067 nM	0.00015 s⁻¹	2.3e+07 M⁻¹ s⁻¹
B2	0.021 nM	0.00034 s⁻¹	1.6e+07 M⁻¹ s⁻¹	0.0061 nM	0.00011 s⁻¹	1.8e+07 M⁻¹ s⁻¹	0.081 nM	0.0033 s⁻¹	4e+07 M⁻¹ s⁻¹	0.014 nM	0.00072 s⁻¹	5.1e+07 M⁻¹ s⁻¹
